Experiment: label from the status in PepcDB records
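Further: failed if final PepcDB status was selected cloned or expressed and not failed if soluble or beyond.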

Row | Sequence | protein production
1 | MKRAFAAVAATVCLFLLVQLGSLALVEPFMSAGFQAVEDPSDPTNSLLYIIAILVATGVMLAAMKFGVDRLLQGLVLFAAVFISFYVFTVVVPPVVAVAGLNLVAVALALALGVGLLVYPEWYVIDAAGIVMGAGAAGLFGISFGLLPALVLLVVLAVYDAISVYGTEHMLALASGAMDLRLPVIFVVPLTLSYSFLDADNPESLEDDTPESDAEAEPDEGDDVSTATGDAEPVDTMAEDADTDADSDADADDPAAAEAAPDEHADPFARDAFFIGLGDAVIPTILVASAAFFRPGGVELLSVPGIALTVPALGAMVGTIAGLLALMWFVMKGRAHAGLPLLNGGAIAGYLLGAAAVGIPVVEALGVAPYL | failed
2 | MKRANIVKLIVDKKTHEKLKELAIATAKCWNEVNWLRMQQFKKGERVDFSKTEKDVYEKYKQILKVNTQQVARKNAEDWRSFFSLIEEKKEGKLPRWFKPRPPGYWKDKIGKYKLIIIIRKDRYEVNEEKRIIYLKDFKLSLSFKGKLKWHGEQGRLEIIYNEARRIWYAHIPVEVQNDVKAEGKLKASIDLGIVNLATVYVEDGSWYIFKGGSVLSQYEYYSKRISIVQKTLARHKQRRSRKMKLLYEKRKRFLKHALNSMVRKIMEELKKKGVSKLIIGYPKEISKDHGNKLTVNFWNYGYIIRRFEEVGEELGIEVVEVDEAWTSKSCSLCGEAHHRGRIKRGLYRCPRMGKVINADLNGAINILHIPESLGAGSGGQLPVRDRGNGLKAQPAVYRWSNGVGWVSSPTSYEVMKMKAVNRKPMNRPKGTLAL | failed
3 | MKRDRNLTWHRTDALRPNLEGRQVAVIGGTGGIGRALSRHLASLDARVVVVGQTFRDADVPGIRFIQADLSLMHEAQRVAGLLPAQTLDLVIFTTGIFAAPQRQETTEGIERDLAVSYLNRLVMLRAIAPTLGTQRARPAMKPRVFIMGYPGSGQTGAPDDLNAEAPYKAMAAHMNTVAGNEMLVLDAALRYPQATFFGLNPGLIKTGIRDNFFGKGSVKSRIAETLIGWLTPTADTYAQRITPLLMSPDLEGHSGAMFNSKGQAILPSPGLGEAHIRKFMAASEALANRTGIHPIGQEDRP | failed
4 | MKREIQVSVFLTFITLAYYLLNSLALEFLGLGFISIPLTILLPASILFERERPNPISRVTYIFSMLWLVFLIYLLTGWALVQFIWFFLDLPCLKILAVSLAALSVSYGVFRARKIEVKRVEIPFPVEESLRFVQLSDIHLGTVRSAGFLKEVSEAVRRVEAAAVLITGDLLDGSRPVDSSIISSLETGAPIFFVSGNHDTYSGDFRSTVSDAGIMCIDQSVIEFEGIQIIGVGYSMERHSLPAILDLLEFDEDRPVLLLHHLPVDWEDARERGVDLQLSGHTHGGQFYPFNIIVGLMFPFLRGLYSDSGGFLYVSEGTGTWGPPVRLGSSCEITVIDLVPFKEI | failed
5 | MKRERSDFEESLKNIDIAKCLMILAQTSMVKQIGLNQHTESHTSNQFECKTCNKRFSSFQALGGHRASHKKPKLTVEQKDVKHLSNDYKGNHFHKCSICSQSFGTGQALGGHMRRHRSSMTVEPSFISPMIPSMPVLKRCGSSKRILSLDLNLTPLENDLEYIFGKTFVPKIDMKFVL | failed
6 | MKRFIIKSDRIGFSIWEETDLKEALELWGNSNVTKYITADGKMSIEDVKTRLKVEIEFYEKYKVQYWPIFLNETSENLGVCGLHPYNIKDSVFELGVHLREKYWGIGVAEKACNLVMRYAFENLQAKAIFVGHNPNNKASKKLIKKLGFTYTHDEFYEPTGLYHPSYLITCNEFIEVKNKLKGGKIIGKNK | not failed
7 | MKRFVLFLLFMCVCVQAYAEQDYFFRDFKSRDLPQKLHLDKKLSQTIQPCMQLNASKHYTSTGVREPDKCTKSFKKSALMSYDLALGYLVSKNKQYGLKAIEILNAWAKELQSVDTYQSEDNINFYMPYMNMAYWFVKKAFPSPEYEDFIKRMRQYSQSALNTNHGAWGILFDVSSALALDDNALLHNSANRWQEWVFKAIDENGVIASAITRSDTSDYHGGPTKGIKGIAYTNFALLALTISGELLFENGYDLWGSGAGKRLSVAYNKVATWILNPETFPYFQPNLIGVHNNAYFIILAKHYSSPSANELLKQGDLHEDGFRLKLRSP | failed
8 | MKRGNEENNHKTSSSSSTQRLSRRKISAGEKSGNVNIPLDLTVEILKKLPAKSLLRFQCVSKQWLSIISSRRDFIDSIVTRSLTQPPPRDIKLIFHHQVLYPGPHFFIFSSTYPQNTDKESLTTRASSYHYVRGLICCWSHCPTTVDIYNPTTRQYYTVPDTNRYQYIETCFFGYDPVENQYKVMVLPKYYMEESPCQVFTVGDPIEKPWRDIQGIGVHFLLKDAVCINGVIYYQATNEYGSTYFLVSFDVRSEKFNHVKAPKILTDHPCTLINYQGKLGLIMCCKKGLEIWVMEDAEKKQD | failed
9 | MKRIFKGHSPWGFLSFRHAENQEPPRYLTGYTPVKRIHKAASMGDIPQVQKLLEFGNIDVNITDRKKRTALHYACAHGQSEMVSLLLWYDCNIEARDREESTALIKATQRQHEICVKILLENGADPNAVDAYHITALHYAVYNNDTAIAAKLLSFNANTEIKTKNGYTPLILAVLENKQEMVELLLRAAANINALDNCKRSALIHAVRIQSKNMISLLLQQGADPSLVDIYGATAQSYAVFETFQVLSQSPGPSCPELTTKEDKQSFDTKDGCIPHSHHIKEDNQEMEENTDDKLGSPAALKHKEKELENCEECNSEADTYPESYSKTSSAQRRSNSEPTEVDDEPSFSTKPPVAQSPMFTESSLWVGYPADWPEPVKFSRQPAVYNPTEWREDMESRSVPREESKQQVAIFPEGKEADVQTQELLSRVFKESGDNDPNLPAIENTKDELVSLLAPLEENKPQMTEFPLIEAAKFQTDVQLDRCPCFLLSLRNSLSGTLD | failed
10 | MKRIKLVRHGESAANAGQASRNHESIPLTHRGLEQAITVARSFTKAPELIVASPFSRAQATAQETSAIFPTVAIETWPIQEFTYLAPARCVDTTVAQRRDWVDAYWARAEPAFCDGEGAESFLDFVYRAQAFLKQLAGHSAANTVVFSHGQFLNAVAWLLERRPQSLDRHAMADWRRYEIENHIPNGCGFYLSQSSTGAEWVLGHRNY | failed
11 | MKRILVSLYEKEKYLDILRELHEKGWEIWASSGTAKFLKSNGIEANDVSTITGFENLLGGLVKTLHPEIFAGILGPEPRWDVVFVDLYPPPDIDIGGVALLRAAAKNWKKVKPAFDMETLKLAIEIDDEETRKYLAGMTFAFTSVYDSIRANQFVEGISLAFKREDLQLRYGENPHEKAFVYGKPAFEILHEGKTISFNNILDAENAWFMAKNLPRMGAVVVKHQSPCGAAIGEDKVEIVKKAIEADDESSFGGILAVNFEMDEEVAKSLKKYLEVIVAPSFTQEAIEVLSKKKVRLLKPGDYASWAGKMAFGSLVLSERKYPEGNFELVVGEPLSEKELEDLEFAYRVVEGAKSNAVLIAKDGVTVGIGSGQPSRKRAAWIATVMAGEKAKGAVAASDAFFPFPDSLEILAQAGVKAVVAPLGSIRDEEVIEKARELGITFYKAPSRVFRH | not failed
12 | MKRKAVNFHPQVDMSIGDKYLLKEFIDEGSFGYVWKAVNLENRQTVALKIPKDQERGDNTLSEGKEFIGSHHPNVISIYWMGRVDGVFLIEMEYFNGHKLSDELCETGFKSPRTFEEIYNLFFQILDGVEYIHSKHICHGDIKPQNILIDGKIAKITDFGTSKLIEDLFIKTIDGGGTWAYMAPEVAGSNRRYLNSDIYSLGVLLYKFLTGRTPHETANQLINNIPYPKPREINNNIPESVERIIMKLLKRNPDERYQNISEIKRDLEEALRSEDRNIISYNERAEVKYEDTDWIERVIRYYKNNEFDKAELLLKTEYENGNKSADVLYHIAYTYFQQGRYFESMDVIKDIDITQVEDIRQEALEDNLLYLKGKLFFELKKYEEAVKVYEKLVSRNPDDLNYRYKLACAYGLNDEQEKSIEILEDINKKTPGMLYIVKKLGHAYDQIKDFKKARAYFNYAIRLDPSDTIIRNRLEEYSKYFNYLGY | failed
13 | MKRKISMNKYVVSTILVMISTFFSRIMGFVKIKIFSYYFGANLDADIFNYVFNIPNNLRKILSEGAMTSAFLPEFTHEKNKSHEKAVSFFRTVITFNIISIGLIVLVMIIFAKPIMYFISYYRGENLIFASSVFGYLVLYILLISLSSIFVSVLNSYKIFFIPSFSPIMLSFGIILSIFLFYGRFGIYSAVIGVIFGGFLQFLIPFANCLMIGFAWKPTFYFREKVFLNFLTRWLRMIFGFSISIITQQISFALASTLEIGSVSILSNAVVYYQLPVGIFYISIATVIFPKMAEHAVLGNNIKLNALLVDGIKILLLIFIPVSFLMFIWSDYILNLFLMGGKFSIYDTQKTASVLKCFLLGLLFYSMFGFFQKYYFSIRDAKTPFYLSVLFSILDIAISVFGINYYGLNALALAQSISFMICVIVFYFIILKRGVKIDLIEILFVLLKSIITLFPLYAIYFFFEKFQWDVGFSFKNLYFLMAAGIVSIFVLFICYSVLGINKLFRYIRRDAL | failed
14 | MKRKLTTKFIESQKPNPSKRLDFRDELMPGLVLRISTSGTKTFCLHKRISGKMRRLTIGRFGVVSLAEARERVRKVLYEIETGRFEDRTGVEVETKPTLGDVIPDYIEKHAKVHNRDWKRKEALLAKFAALHVKRIDEIKRADVVKACDLIHKSAPVSANRALAHLKHLMGWCVERGMIDASPIAGMKPLSKERSRERVLTDDELGALWTACDAEGYPFGDCMKLLILSGQRRAEVAEMRWTELDLEKRLWTLPSQRAKNGRQHTVPITDAMIDVLRRVPRFLGSDYVFTTTGKSPVSGFGRLKDRLDKALPEGTEPWIIHDLRRTMSTNMAMLGVPQPVTEALLNHKTGVVSGVAAIYNVYSYTDEKCEALEQWNRHLTKMTQGHSDRLAGKMSAQFSA | failed
15 | MKRKMLKRLLTSAFACMFIANGLITTTVRAVGPKTGEENQVLVPNLNPTPENLEVVGDGFKITSSINLVGEEEADENAVNALREFLTANNIEINSENDPNSTTLIIGEVDDDIPELDEALNGTTAENLKEEGYALVSNDGKIAIEGKDGDGTFYGVQTFKQLVKESNIPEVNITDYPTVSARGIVEGFYGTPWTHKDRLDQIKFYGENKLNTYIYAPKDDPYHREKWREPYPENEMQRMQELIDASAENKVDFVFGISPGIDIRFDGEAGEEDFNHLIAKAESLYDMGVRSFAIYWDDIQDKSAAKHAQVLNRFNEEFVKAKGDVKPLITVPTEYDTGAMVSNGQPRTYTRIFAETVDPSIEVMWTGPGVVTNEIPLSDAQLISGIYNRNMAVWWNYPVTDYFKGKLALGPMHGLDKGLNQYVDFFTVNPMEHAELSKISIHTAADYSWNMDNYDYDKAWNRAIDMLYGDLAEDMKVFANHSTRMDNKTWAKSGREDAPELRAKMDELWNKLSSKEDASALIEELYGEFARMEEACNNLKANLPEVALEECSRQLDELITLAQGDKASLDMIVAQLNEDTEAYESAKEIAQNKLNTALSSFAVISEKVAQSFIQEALSFDLTLINPRTVKITASSEETSGENAPASFASDGDMNTFWHSKWSSPAHEGPHHLTLELDNVYEINKVKYAPRQDSKNGRITGYKVSVSLDGENFTEVKTGTLEDNAAIKFIEFDSVDAKYVRLDVTDSVSDQANGRGKFATAAEVNVHGKLKEAAEVTGSVSLEALEEVQVGENIEVGVGIDELVNAEAFAYDFTLNYDENAFEYVEAISDDGVFVNAKKIEDGKVRVLVSSLTGEPLPAKEVLAKVVLRAEAKTEGSNLSVTNSSVGDGEGLVHEIAGTEKTVNIIEGTSPEIVVNPVRDFKASEINKKNVTVTWTEPETTEGLEGYILYKDGKKVAEIGKDETSYTFKKLNRHTIYNFKIAAKYSNGEVSSKESLTLRTAR | failed
16 | MKRLIAATLVAAMGVSLLTGCGVSNKSHDNTQVGTTENSSDKAKNKEVKMHVWCSKDDVDITTQMIESFKEANKGTDFNIIIEESEDSDARDNILSNVHNGADVFPIADDQITSMVAGGALYEIEDVDAVKKANDESAVEAATIDGKLYGYPLTADNGYFMYYNKNYFSDSDVATLDGMLDIAGANGKYLTMDWSSGWYLYSFFGNTGLDFGVNDDGVTNHCNWNAIITDIKGVDIAQAMLDIAAKPGFKNCVQDDFIAGVQDGSIIAGVSGCWNAAKIKELWGDDYGAVKLPTYTCAGQQIQMSSFKGYKYMAVNAYTKYPEWANKLAQWFTNEDNQKLRFEMKNVGPANKAAAADDAVKKVPAIMAVMDQAQYGKLQRVGNSYWDAATEFGEKMAAGNPDNTDLQEIMDNLVAGITQSVAE | failed
